Results from FireProtDB (doi:10.1016/0022-2836(92)90562-x).

B1: Ribonuclease, P00648 (parent)
chain: MMKMEGIALKKRLSWISVCLLVLVSAAGMLFSTAAKTETSSHKAHTEAQVINTFDGVADYLQTYHKLPDNYITKSEAQALGWVASKGNLADVAPGKSIGGDIFSNREGKLPGKSGRTWREADINYTSGFRNSDRILYSSDWLIYKTTDHYQTFTKIR

Variants of: B1
Conditions: Bacillus amyloliquefaciens; pH 6.3; 25 °C; Urea; Fluorescence; MES-NaOH 450 mM; reversible: yes; structure 1BNI; whole UniProt chain shown

Variant	ddG of mutation (higher = less stable) [kcal/mol]	denaturant m value [kcal/mol/M]	denaturant midpoint (higher = more stable) [M]	unfolding free energy [kcal/mol]
I156A	1.27	2.15	3.5	7.55
I156V	0.81	1.92	4.1	8.01
I143A	3.15	1.96	2.8	5.67
I143V	1.02	1.9	4.1	7.8
S139A	3.22	1.78	3.1	5.6
R157A	-0.07	2.03	4.3	8.89
I98A	4.72	1.9	2.1	4.1
I98V	1.13	2.11	3.6	7.69
K109R	0.32	1.95	4.3	8.5
S138A	2.41	1.79	3.5	6.41
Y150F	0.18	1.89	4.5	8.64
T152V	2.14	1.95	3.4	6.68
D101A	2.86	1.95	3	5.96
D101N	1.78	2.11	3.3	7.04
T146V	2.92	1.84	3.2	5.9
L136V	0.47	1.89	4.4	8.35
L136T	3.28	1.78	3.1	5.54
N124A	1.45	1.98	3.7	7.37
I123A	1.66	1.99	3.6	7.16
I123V	0.98	1.89	4.1	7.84
I135A	4.02	1.94	2.4	4.8
I135V	1.64	1.85	3.8	7.18
N131A	1.59	2.04	3.5	7.23
Y125F	1.14	1.98	3.8	7.68
I102T	1.24	1.84	4.1	7.58
I102V	0.63	1.85	4.4	8.19
N105A	2	1.97	3.4	6.82
N105D	-0.31	1.9	4.8	9.13
